Assay results: paper PMC5216073

Columns and labels:
[1] = target: CtYpt7-F33A (Chaetomium thermophilum)
[2] = target: CtYpt7-K38A (Chaetomium thermophilum)
[3] = target: CtYpt7 wild type (Chaetomium thermophilum Ypt7) (Chaetomium thermophilum)

kcat/KM of MC1-stimulated nucleotide exchange (fluorescence GEF assay, rates against CtMC1core concentration) [1]: 35000 M⁻¹ s⁻¹
kcat/KM of MC1-stimulated nucleotide exchange (fluorescence GEF assay, rates against CtMC1core concentration) [2]: 2600 M⁻¹ s⁻¹
kcat/KM of MC1-stimulated exchange of MANT-GDP for GTP on Ypt7 (fluorescence GEF assay, 0-2.0 μM CtMC1core, 25 °C) [3]: 23000 M⁻¹ s⁻¹
Substance: CtMC1core complex (CtMon1 195-355 with CtCcz1 1-249), both expression tags retained, as used in the GEF assay
